Results as given in PMC8249609 (2021).

Molecular target: T1, AT1 receptor, residues 1-318, with N-terminal Flag-tag and BRIL (Flag-BRIL-AT1) (human (by the printed RefSeq …, UniProt P30556 1-318))
T1 chain: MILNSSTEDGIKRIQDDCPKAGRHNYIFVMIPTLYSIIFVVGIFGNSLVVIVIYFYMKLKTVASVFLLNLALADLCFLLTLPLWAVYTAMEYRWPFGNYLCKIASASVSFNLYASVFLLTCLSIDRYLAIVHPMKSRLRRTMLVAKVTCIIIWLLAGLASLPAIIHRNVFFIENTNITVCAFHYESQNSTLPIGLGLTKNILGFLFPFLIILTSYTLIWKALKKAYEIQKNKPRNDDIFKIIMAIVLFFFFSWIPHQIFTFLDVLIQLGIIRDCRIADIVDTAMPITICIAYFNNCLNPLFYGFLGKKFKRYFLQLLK
Assay: SPR

koff: 0.000389 s⁻¹
B1: cartilage oligomeric matrix protein with a C-terminal His-tag (COMP-His) (natural protein)
chain: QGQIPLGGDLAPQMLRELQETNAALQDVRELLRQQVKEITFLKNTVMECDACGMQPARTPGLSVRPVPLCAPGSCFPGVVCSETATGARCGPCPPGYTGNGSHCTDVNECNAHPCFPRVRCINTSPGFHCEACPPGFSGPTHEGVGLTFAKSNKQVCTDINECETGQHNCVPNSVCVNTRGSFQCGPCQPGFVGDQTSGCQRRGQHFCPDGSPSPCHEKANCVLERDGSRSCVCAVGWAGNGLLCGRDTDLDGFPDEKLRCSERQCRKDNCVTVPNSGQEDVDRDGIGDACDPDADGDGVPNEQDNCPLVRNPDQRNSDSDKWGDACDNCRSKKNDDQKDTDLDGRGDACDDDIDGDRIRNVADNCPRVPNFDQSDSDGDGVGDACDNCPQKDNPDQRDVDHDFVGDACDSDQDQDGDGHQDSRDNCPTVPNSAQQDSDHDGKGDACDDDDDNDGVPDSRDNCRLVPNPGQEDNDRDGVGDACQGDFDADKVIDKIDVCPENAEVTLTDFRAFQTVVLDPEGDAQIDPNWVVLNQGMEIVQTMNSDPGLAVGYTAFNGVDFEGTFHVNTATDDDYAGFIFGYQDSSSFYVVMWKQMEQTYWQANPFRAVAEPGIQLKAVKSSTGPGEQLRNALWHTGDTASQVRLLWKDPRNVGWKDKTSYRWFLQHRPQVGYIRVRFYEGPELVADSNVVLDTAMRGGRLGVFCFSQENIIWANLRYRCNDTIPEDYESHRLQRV
